Experiments:
ADH = ADH (Equus caballus, UniProt P00327); test: Chaperone assay, thermal aggregation of ADH at 50° C.; type: biochemical; conditions: 50:1 molar ratio of peptide:ADH, sixty minutes, 340 nm
Protocol: (§1) The chaperone activity of the peptides was measured as their ability to protect against the thermal aggregation of three chaperone target proteins βH crystallin, ADH and CS in chaperone assays performed at 50° C. (FIG. 19). A non-interactive αB crystallin sequence 111HGKHEERQDE120 was used as the negative control in the chaperone assays (FIG. 19). Based on near and far UVCD, the three target proteins unfolded in the order: CS>>>ADH>>βH crystallin when they were heated at 50° C. for sixty minutes (FIGS. 15 and 16). The thermal aggregation of βH crystallin, ADH and CS was measured as light scattering at λ=340 nm in the presence and absence of each peptide. The chaperone activity of each peptide was calculated as percent protection in which the aggregation of each target protein in the absence of any peptides was set at 0% protection (FIG. 19). The interactive peptides […] and 131LTITSSLSDGV141 were effective inhibitors of aggregation of all three chaperone target proteins.
(§2) A (top left): thermal aggregation of chaperone target proteins βH crystallin, ADH and CS in the absence of peptides was measured as light scattering at λ=340 nm. Each target protein was heated at 50° C. for sixty minutes in the absence or presence of one of the peptides. […] The chaperone activity of each peptide was calculated as percent protection in which the aggregation of each target protein in the absence of any peptides was set at 0% protection. The ability of the 73DRFSVNLDVKHFS85, 131LTITSSLSDGV141 and 111HGKHEERQDE120 to protect against the thermal aggregation of βH crystallin (B: top right), ADH (C: bottom left) and CS (D: bottom right) were tested in vitro (vertical bars). […] A 10:1 molar ratio of peptide:target protein was sufficient in conferring significant protection against the aggregation of CS by 73DRFSVNLDVKHFS85 and 131LTITSSLSDGV141.

βH crystallin = test: Chaperone assay, thermal aggregation of βH crystallin at 50° C.; type: biochemical; conditions: 50:1 molar ratio of peptide:βH crystallin, sixty minutes, 340 nm
Protocol: as §1, §2

[1] = biological target: T1, porcine citrate synthase (CS) (Sus scrofa, UniProt P00889); test: αB crystallin protein pin array with citrate synthase; type: binding; conditions: CS as target protein in the pin array
T1 construct: purchased Roche Diagnostics, IN 103 381
T1 sequence (P00889 28-464): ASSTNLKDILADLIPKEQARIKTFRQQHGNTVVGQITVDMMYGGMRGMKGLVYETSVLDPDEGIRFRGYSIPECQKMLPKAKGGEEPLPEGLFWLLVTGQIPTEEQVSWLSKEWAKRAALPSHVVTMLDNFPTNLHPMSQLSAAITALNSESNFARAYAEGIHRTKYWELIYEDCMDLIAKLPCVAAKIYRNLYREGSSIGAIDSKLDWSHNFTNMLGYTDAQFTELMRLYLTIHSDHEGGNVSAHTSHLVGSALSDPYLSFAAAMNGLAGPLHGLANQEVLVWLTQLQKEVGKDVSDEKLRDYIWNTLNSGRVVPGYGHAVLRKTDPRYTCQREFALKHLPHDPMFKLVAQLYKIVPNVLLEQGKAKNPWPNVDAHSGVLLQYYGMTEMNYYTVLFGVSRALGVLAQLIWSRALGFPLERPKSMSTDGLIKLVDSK
Source text: Synthesis of Pins, binding and detection of peptides binding to ligand proteins. The αB crystallin protein pin array was used to measure the interaction between peptides and chaperone target proteins including bovine βH crystallin, human γD crystallin, equine alcohol dehydrogenase (ADH) and porcine citrate synthase (CS) as described (FIG. 12). Ghosh and Clark, Protein Sci 14: 684-95, 2005.
Refer to the methods section for detailed protocols. The absorbance corresponding to the blue coloration in each well was measured at λ=450 nm and plotted against the amino acid sequence of the corresponding peptide in that well (FIGS. 13 and 14). Wells containing peptides that have strong interactions with target proteins are dark blue and wells containing peptides that have weak or no interaction with target proteins are light blue or clear.
The purity of the target proteins used in the pin array assays, bovine βH crystallin, human γD crystallin, equine alcohol dehydrogenase (ADH) and porcine citrate synthase (CS) were determined to be >90% by SDS-PAGE. In addition, primary antibodies for each target protein were specific to that target protein and consequently contaminating proteins that may bind to the peptides will not be detected. Eighty-four sequential and overlapping peptide fragments corresponding to residues 1-175 of human αB crystallin were synthesized employing a simultaneous peptide synthesis strategy developed by Geysen, called Multipin Peptide Synthesis (Mimotopes, San Diego, Calif.). Geysen, Southeast Asian J Trop Med Public Health 21: 523-33, 1990; Chin et al., J Org Chem 62: 538-539, 1997. Peptides were immobilized on derivatized polyethylene pins arranged in a microtiter ELISA plate format. Each peptide was eight amino acids in length and consecutive peptides were offset by two amino acids. All peptides were bound covalently to the surface of the plastic pins. The first peptide was 1MDIAIHHP8 and the last peptide was 168PAVTAAPK175 for human αB crystallin.
Ghosh and Clark, Protein Sci 14: 684-95, 2005. […] The intensity of the blue color in the wells was measured at 450 nm using an ELISA plate-reader (BioTek, Winooski, Vt.). The intensity of the blue color (plotted on the X-axis) was a measure of the interaction between αB crystallin peptides (plotted on the Y-axis) and target proteins. To measure the effect of temperature on the interactions between interactive peptides and the target proteins, the target proteins were heated in a water-bath at 45° C. for fifteen minutes prior to use. Pin arrays are unable to differentiate between monomers, dimers or oligomers of target proteins that exist in solution. Instead, pin arrays are very sensitive detectors of interactions between individual peptides and the entire population (monomers, dimers or oligomers) of specific target proteins that may exist in solution under specific conditions. Each target protein was assayed two to five times. A single pin array was used for all experiments and no change in interactions was observed after more than thirty repetitions. The last three peptides of the protein pin array, 163REEKPAVT170, 165EKPAVTAA172, 167PAVTAAPK174, correspond to the epitope (163REEKPAVTAAPKK175) recognized by the primary antibody for human αB crystallin. A positive reaction is observed for these three peptides in the absence of human αB crystallin as the ligand due to direct binding of the anti-human αB crystallin antibody to these three peptides. The loss of efficiency for the pin array was measured using this assay. The loss of efficiency for the pin array was determined to be <5% by after more than 30 assays.
The pattern of absorbance at λ=450 nm when αB crystallin peptides were assayed with unheated and pre-heated CS was similar to the absorbance pattern obtained with unheated and pre-heated βH/γD crystallin and ADH (FIG. 18). […]

ADH, sequence (P00327 whole entry): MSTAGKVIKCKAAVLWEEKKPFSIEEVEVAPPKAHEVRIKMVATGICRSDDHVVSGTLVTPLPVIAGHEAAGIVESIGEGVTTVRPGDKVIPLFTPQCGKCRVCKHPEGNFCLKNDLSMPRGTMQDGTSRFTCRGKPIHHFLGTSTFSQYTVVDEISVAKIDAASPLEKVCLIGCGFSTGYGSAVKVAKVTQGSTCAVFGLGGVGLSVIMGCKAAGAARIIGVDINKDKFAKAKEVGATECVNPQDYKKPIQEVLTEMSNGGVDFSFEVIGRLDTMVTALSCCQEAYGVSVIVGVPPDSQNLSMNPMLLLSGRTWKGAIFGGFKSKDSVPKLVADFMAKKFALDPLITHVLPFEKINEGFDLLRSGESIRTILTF

Sequence	percent protection against thermal aggregation of ADH (ADH)	percent protection against thermal aggregation of βH crystallin (βH crystallin)	absorbance at 450 nm, interaction with CS [1]
DRFSVNLDVKHFS	approximately 30%	approximately 30%	–
FSVNLDVK [Peptide 38]	–	–	absorbance maxima
HGKHEERQDE	No protection	No protection	–
LTITSSLS [Peptide 66]	–	–	absorbance maxima
WIRRPFFP [Peptide 5]	–	–	absorbance maxima
